According to patent US12281340B2, “Method of producing N-acyl-amino group-containing compound” (AJINOMOTO CO., INC., priority 2018, dated 2025):

Legend:
Format in all cases: biochemical
Parameters in all cases: key: +: Detected; −: Not detected
[1] = Synthesis of N-caprinoylamino acid using purified acylamino acid synthetase, UPLC-MS detection; conditions: +ATP
Experimental: 2.0 mL of a reaction solution containing 50 mM Tris-HCl, 5 mM amino acid, 5 mM sodium caprate, 10 mM ATP, 10 mM MgCl2, 1 mM DTT, 50 μg of the purified enzyme, pH 8.0 was incubated at 25° C. for 24 hours. After completion of the reaction, 0.8 mL of a reaction stop solution (1% (v/v) phosphoric acid, 75% (v/v) methanol) was added, and the mixture was filtrated through a filter followed by being subjected to the UPLC-MS analysis to detect a signal of a molecular weight corresponding to an N-caprinoyl amino acid.
A UPLC-MS analysis condition is as follows.
(§1) Apparatus: ACQUITY UPLC (Waters)
• Column: ACQUITY UPLC BEH C18 1.7 2.1×100 mm Column (Waters) • Mobile phase A: 0.1% formic acid • Mobile phase B: acetonitrile Gradient
• Flow rate: 0.6 mL/min • Injection amount: 2 μL • Column temperature: 40° C. • Ionization method: ESI-negative
As a result of the UPLC-MS analysis, the signal of the molecular weight corresponding to the N-caprinoyl amino acid was confirmed in the reaction solution combining the enzyme and the amino acid shown in Table 3 below.

[2] = Synthesis of N-caprinoyl-amino acid derivative, N-caprinoyl-D-amino acid and N-caprinoyl-peptide using purified acylamino acid synthetase, UPLC-MS detection; conditions: +ATP
Experimental: 0.2 mL of a reaction solution containing 50 mM Tris-HCl, 5 mM amino acid derivative or D-amino acid or peptide, 5 mM sodium caprate, 10 mM ATP, 10 mM MgCl2, 1 mM DTT, 50 μg/mL of the purified enzyme, pH 8.0 was incubated at 25° C. for 24 hours. After completion of the reaction, 0.8 mL of the reaction stop solution (1% (v/v) phosphoric acid, 75% (v/v) methanol) was added, and the mixture was filtrated through the filter followed by being subjected to the UPLC-MS analysis to detect a signal of a molecular weight corresponding to an N-caprinoyl-amino acid derivative, an N-caprinoyl-amino acid or an N-caprinoyl-peptide. A condition for the UPLC-MS analysis is as described in Example 2.
As a result of the UPLC-MS analysis, the signal of the molecular weight corresponding to the N-caprinoyl-amino acid derivative, or N-caprinoyl-amino acid, or N-caprinoyl-peptide was confirmed in the reaction solution containing the enzyme in combination with the amino acid derivative or the D-amino acid or the peptide shown in Table 4 below.

[3] = Synthesis of N-acylamino acids from various fatty acids using purified acylamino acid synthetase, UPLC-MS detection
Experimental: 0.1 mL of a reaction solution containing 50 mM Tris-HCl, 5 mM amino acid, 5 mM sodium fatty acid (3 mM of sodium palmitate or sodium stearate), 10 mM ATP, 10 mM MgCl2, 1 mM DTT, 200 μg/mL of the purified enzyme, pH 8.0 was shaken at 25° C. for 24 hours. When sodium palmitate or sodium stearate was used, methanol at a final concentration of 10% (v/v) was contained in the reaction solution. As the amino acid, L-Asp was used in AtGH3-6, OsGH3-8, AtGH3-5, AtGH3-12, L-Ile was used in AtJAR1, L-Ala was used in AtGH3-10, SsGH3, L-Glu was used in AtGH3-17, Gly was used in CfHP, L-Lys was used in PsIAAL, and L-Cys was used in PaHP. After completion of the reaction, 0.4 mL of the reaction stop solution (1% (v/v) phosphoric acid, 75% (v/v) methanol) was added, and the mixture was filtrated through the filter followed by being subjected to the UPLC-MS analysis to detect a signal of a molecular weight corresponding to the N-acylamino acid.
The condition for the UPLC-MS analysis is as follows.
as §1
Column: ACQUITY UPLC BEH C18 1.7 μm 2.1×100 mm Column (Waters), mobile phase A: 0.1% formic acid; mobile phase B: acetonitrile
• Flow rate: 0.6 mL/minute • Injection amount: 2 μL • Column temperature: 40° C. • Ionization method: ESI-negative
As a result of the UPLC-MS analysis, the signal of the molecular weight corresponding to the appropriate N-acylamino acid was confirmed in the reaction solution containing the enzyme in combination with sodium fatty acid shown in Table 7 below.

B1: AtJAR1: Jasmonic acid-amido synthetase JAR1 from Arabidopsis thaliana, His-tagged (protein, listed as Arabidopsis thaliana)
chain: MLEKVETFDMNRVIDEFDEMTRNAHQVQKQTLKEILLKNQSAIYLQNCGLNGNATDPEEAFKSMVPLVTDVELEPYIKRMVDGDTSPILTGHPVPAISLSSGTSQGRPKFIPFTDELMENTLQLFRTAFAFRNRDFPIDDNGKALQFIFSSKQYISTGGVPVGTATTNVYRNPNFKAGMKSITSPSCSPDEVIFSPDVHQALYCHLLSGILFRDQVQYVFAVFAHGLVHAFRTFEQVWEEIVTDIKDGVLSNRITVPSVRTAMSKLLTPNPELAETIRTKCMSLSNWYGLIPALFPNAKYVYGIMTGSMEPYVPKLRHYAGDLPLVSHDYGSSEGWIAANVTPRLSPEEATFAVIPNLGYFEFLPVSETGEGEEKPVGLTQVKIGEEYEVVITNYAGLYRYRLGDVVKVIGFYNNTPQLKFICRRNLILSINIDKNTERDLQLSVESAAKRLSEEKIEVIDFSSYIDVSTDPGHYAIFWEISGETNEDVLQDCCNCLDRAFIDAGYVSSRKCKTIGALELRVVAKGTFRKIQEHFLGLGSSAGQFKMPRCVKPSNAKVLQILCENVVSSYFSTAF
modifications: His-tag
notes: Jasmonic acid-amido synthetase JAR1 from Arabidopsis thaliana, His-tagged
- signal of molecular weight corresponding to N-caprinoyl amino acid ([1]; substrates GABA and sodium caprate): +
- signal of molecular weight corresponding to N-caprinoyl amino acid ([1]; substrates Gly and sodium caprate): +
- signal of molecular weight corresponding to N-caprinoyl amino acid ([1]; substrates L-Ala and sodium caprate): +
- signal of molecular weight corresponding to N-caprinoyl amino acid ([1]; substrates L-Arg and sodium caprate): +
- signal of molecular weight corresponding to N-caprinoyl amino acid ([1]; substrates L-Asn and sodium caprate): +
- signal of molecular weight corresponding to N-caprinoyl amino acid ([1]; substrates L-Asp and sodium caprate): +
- signal of molecular weight corresponding to N-caprinoyl amino acid ([1]; substrates L-Cys and sodium caprate): −
- signal of molecular weight corresponding to N-caprinoyl amino acid ([1]; substrates L-Gln and sodium caprate): +
- signal of molecular weight corresponding to N-caprinoyl amino acid ([1]; substrates L-Glu and sodium caprate): +
- signal of molecular weight corresponding to N-caprinoyl amino acid ([1]; substrates L-His and sodium caprate): +
- signal of molecular weight corresponding to N-caprinoyl amino acid ([1]; substrates L-Ile and sodium caprate): +
- signal of molecular weight corresponding to N-caprinoyl amino acid ([1]; substrates L-Leu and sodium caprate): +
- signal of molecular weight corresponding to N-caprinoyl amino acid ([1]; substrates L-Lys and sodium caprate): −
- signal of molecular weight corresponding to N-caprinoyl amino acid ([1]; substrates L-Met and sodium caprate): +
- signal of molecular weight corresponding to N-caprinoyl amino acid ([1]; substrates L-Phe and sodium caprate): +
- signal of molecular weight corresponding to N-caprinoyl amino acid ([1]; substrates L-Pro and sodium caprate): +
- signal of molecular weight corresponding to N-caprinoyl amino acid ([1]; substrates L-Ser and sodium caprate): +
- signal of molecular weight corresponding to N-caprinoyl amino acid ([1]; substrates L-Thr and sodium caprate): +
- signal of molecular weight corresponding to N-caprinoyl amino acid ([1]; substrates L-Trp and sodium caprate): +
- signal of molecular weight corresponding to N-caprinoyl amino acid ([1]; substrates L-Tyr and sodium caprate): +
- signal of molecular weight corresponding to N-caprinoyl amino acid ([1]; substrates L-Val and sodium caprate): +
- signal of molecular weight corresponding to N-caprinoyl amino acid ([1]; substrates β-Ala and sodium caprate): +
- signal of molecular weight corresponding to N-caprinoyl compound ([2]; substrates Carnosine and sodium caprate): −
- signal of molecular weight corresponding to N-caprinoyl compound ([2]; substrates D-Ala and sodium caprate): +
- signal of molecular weight corresponding to N-caprinoyl compound ([2]; substrates D-Asp and sodium caprate): +
- signal of molecular weight corresponding to N-caprinoyl compound ([2]; substrates D-Cys and sodium caprate): −
- signal of molecular weight corresponding to N-caprinoyl compound ([2]; substrates D-Glu and sodium caprate): +
- signal of molecular weight corresponding to N-caprinoyl compound ([2]; substrates D-Ile and sodium caprate): +
- signal of molecular weight corresponding to N-caprinoyl compound ([2]; substrates D-Lys and sodium caprate): −
- signal of molecular weight corresponding to N-caprinoyl compound ([2]; substrates L-Asp-L-Phe and sodium caprate): −
- signal of molecular weight corresponding to N-caprinoyl compound ([2]; substrates L-Gly-L-Gly and sodium caprate): +
- signal of molecular weight corresponding to N-caprinoyl compound ([2]; substrates Sarcosine and sodium caprate): +
- signal of molecular weight corresponding to N-caprinoyl compound ([2]; substrates Taurine and sodium caprate): +
- signal of molecular weight corresponding to N-acylamino acid ([3]; substrates L-Ile and Capric acid): +
- signal of molecular weight corresponding to N-acylamino acid ([3]; substrates L-Ile and Caproic acid): +
- signal of molecular weight corresponding to N-acylamino acid ([3]; substrates L-Ile and Caprylic acid): +
- signal of molecular weight corresponding to N-acylamino acid ([3]; substrates L-Ile and Lauric acid): +
- signal of molecular weight corresponding to N-acylamino acid ([3]; substrates L-Ile and Linoleic acid): −
- signal of molecular weight corresponding to N-acylamino acid ([3]; substrates L-Ile and Palmitic acid): −
- signal of molecular weight corresponding to N-acylamino acid ([3]; substrates L-Ile and myristic acid): −
